Data as given in patent publication US20060204492A1 (published 2006).
Like-named read-outs stand apart in the source and are kept apart here.

How the values were obtained:
[1] = target: T1, integrin αvβ3, purified from human placenta (human, UniProt P06756 31-1048; P05106 27-788); assay: SPR (BIAcore), purified Fab over immobilized αvβ3
T1 construct: mature; Native heterodimer, immobilized on ELISA plates or on the BIAcore chip; biotinylated in capture lift and capture ELISA screens; also called αvβ3 receptor; vitronectin receptor
T1 sequence (P06756 31-1048, form in doubt, chain 1 of 2): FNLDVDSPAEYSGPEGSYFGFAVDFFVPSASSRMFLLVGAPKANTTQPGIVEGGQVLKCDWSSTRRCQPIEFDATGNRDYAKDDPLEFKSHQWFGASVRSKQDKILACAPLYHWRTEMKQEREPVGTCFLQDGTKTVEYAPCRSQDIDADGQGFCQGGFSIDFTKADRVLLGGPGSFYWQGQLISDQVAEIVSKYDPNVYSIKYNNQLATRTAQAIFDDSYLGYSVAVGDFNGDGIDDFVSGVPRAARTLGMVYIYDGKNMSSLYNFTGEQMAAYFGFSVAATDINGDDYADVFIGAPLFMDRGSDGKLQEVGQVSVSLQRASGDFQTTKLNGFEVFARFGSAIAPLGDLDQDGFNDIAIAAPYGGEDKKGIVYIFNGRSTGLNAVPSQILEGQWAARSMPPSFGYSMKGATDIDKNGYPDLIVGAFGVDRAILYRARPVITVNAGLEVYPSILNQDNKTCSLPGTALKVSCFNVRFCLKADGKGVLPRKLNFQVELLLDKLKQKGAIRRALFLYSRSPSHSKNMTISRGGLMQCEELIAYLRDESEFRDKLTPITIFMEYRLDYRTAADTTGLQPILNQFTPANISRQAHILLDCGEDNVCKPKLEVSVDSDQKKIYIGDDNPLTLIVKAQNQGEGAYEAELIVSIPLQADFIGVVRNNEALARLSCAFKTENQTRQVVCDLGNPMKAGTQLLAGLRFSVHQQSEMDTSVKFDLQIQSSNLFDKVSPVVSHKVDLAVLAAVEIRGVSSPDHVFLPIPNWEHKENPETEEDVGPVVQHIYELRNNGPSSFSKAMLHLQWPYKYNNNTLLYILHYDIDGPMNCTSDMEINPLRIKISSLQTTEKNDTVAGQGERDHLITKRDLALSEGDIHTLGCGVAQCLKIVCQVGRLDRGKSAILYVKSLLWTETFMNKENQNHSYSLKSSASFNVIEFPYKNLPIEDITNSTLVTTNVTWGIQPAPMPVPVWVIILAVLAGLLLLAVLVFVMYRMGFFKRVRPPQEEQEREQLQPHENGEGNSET
T1 sequence (P05106 27-788, form in doubt, chain 2 of 2): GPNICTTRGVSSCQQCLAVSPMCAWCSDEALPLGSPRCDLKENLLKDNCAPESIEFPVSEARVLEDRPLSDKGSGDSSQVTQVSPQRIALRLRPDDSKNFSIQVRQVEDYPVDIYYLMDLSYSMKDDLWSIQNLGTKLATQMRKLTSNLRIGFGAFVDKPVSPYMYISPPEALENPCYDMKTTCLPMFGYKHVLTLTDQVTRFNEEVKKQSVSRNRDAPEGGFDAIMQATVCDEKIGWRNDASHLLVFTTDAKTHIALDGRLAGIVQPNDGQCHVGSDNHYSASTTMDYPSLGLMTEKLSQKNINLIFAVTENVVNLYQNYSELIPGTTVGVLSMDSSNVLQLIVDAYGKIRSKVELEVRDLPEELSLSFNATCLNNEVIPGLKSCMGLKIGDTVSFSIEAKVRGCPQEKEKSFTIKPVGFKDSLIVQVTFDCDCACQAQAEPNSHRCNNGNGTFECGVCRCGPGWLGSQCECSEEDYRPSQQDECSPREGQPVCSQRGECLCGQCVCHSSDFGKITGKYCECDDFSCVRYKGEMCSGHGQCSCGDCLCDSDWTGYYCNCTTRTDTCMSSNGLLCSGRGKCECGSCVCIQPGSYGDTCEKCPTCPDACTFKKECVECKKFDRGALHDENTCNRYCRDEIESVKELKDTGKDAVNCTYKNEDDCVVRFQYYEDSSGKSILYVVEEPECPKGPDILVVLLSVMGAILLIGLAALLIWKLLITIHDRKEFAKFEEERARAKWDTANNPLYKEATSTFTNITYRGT
Experimental: (§1) The affinities of select variants were further characterized by utilizing surface plasmon resonance (BIAcore) to measure the association and dissociation rates of purified Fab with immobilized αᵥβ₃. […] To obtain association rate constants (kₒₙ), the binding rate at five different Fab concentrations, ranging from 5-40 μg/ml in 50 mM Tris-HCl, pH 7.4, 100 mM NaCl, 2 mM CaCl₂, and 1 mM MgCl₂, was determined at a flow rate of 10 μl/min. Dissociation rate constants (koff) were the average of five measurements obtained by analyzing the dissociation phase at an increased flow rate (40 μl/min). Sensorgrams were analyzed with the BIAevaluation 2.1 program (Pharmacia). Residual Fab was removed after each measurement with 10 mM HCl, 2 mM CaCl₂ and 1 mM MgCl₂.

[2] = target: T1, integrin αvβ3, purified from human …; assay: SPR (BIAcore), purified Fab over immobilized αvβ3; remark: listed apart in the source
Experimental: as §1

[3] = target: T1, integrin αvβ3, purified from human …; assay: SPR (BIAcore), purified Fab over immobilized αvβ3; remark: listed apart in the source
[4] = target: T1, integrin αvβ3, purified from human …; assay: ELISA titration of Fab on immobilized αvβ3
Experimental: Just prior to use, the plates were washed two times and were then incubated 1 h at 25° C. with various dilutions of Fab. […] All dilutions and washes were in 50 mM Tris-HCl, pH 7.4, 100 mM NaCl, 2 mM CaCl₂, and 1 mM MgCl₂.

| Binder | Kd [1] [pM] | koff [1] [s⁻¹] | kon [1] [M⁻¹ s⁻¹] | Kd [2] [pM] | koff [2] [s⁻¹] | kon [2] [M⁻¹ s⁻¹] | fold enhanced affinity over parent LM609 grafted antibody [3] [fold] | fold slower dissociation rate than parent [3] [fold] | fold greater affinity than parent LM609 grafted antibody [3] [fold] | fold greater association rate than parent [3] [fold] | fold greater affinity than LM609 grafted antibody Fab [3] [fold] | fold enhanced binding over parent LM609 grafted antibody [4] [fold] |
| --- | --- | --- | --- | --- | --- | --- | --- | --- | --- | --- | --- | --- |
| LM609 grafted antibody Fab (Fab, V domains shown, Fab expressed from M13 phage vector, human kappa chain, peptide tag on the carboxyl-terminus of the heavy chain; also called LM609 grafted Fab; parent LM609 grafted antibody) VH: QVQLVESGGGVVQPGRSLRLSCAASGFTFSSYDMSWVRQAPGKGLEWVAKVSSGGGSTYYLDTVQGRFTISRDNSKNTLYLQMNSLRAEDTAVYYCARHNYGSFAYWGQGTTVTVSS VL: EIVLTQSPATLSLSPGERATLSCQASQSISNHLHWYQQRPGQAPRLLIRYRSQSISGIPARFSGSGSGTDFTLTISSLEPEDFAVYYCQQSGSWPHTFGGGTKVEIK | 27600 | 0.00497 | 180000 | 27600 | 0.00497 | 180000 | – | – | – | – | – | – |
| LM609 grafted antibody combinatorial clone 2G4 (Fab, V domains shown, Fab) VH: QVQLVESGGGVVQPGRSLRLSCAASGFTFSSYDMSWVRQAPGKGLEWVAKVSSGGGSTYYLDTVQGRFTISRDNSKNTLYLQMNSLRAEDTAVYYCARHNYGSFASWGQGTTVTVSS VL: EIVLTQSPATLSLSPGERATLSCQASQSISNHLHWYQQRPGQAPRLLIRYRSQSISGIPARFSGSGSGTDFTLTISSLEPEDFAVYYCQQSGSWPLTFGGGTKVEIK | – | – | – | 400 | 0.000229 | 603000 | > 50 | > 10 | – | – | – | – |
| LM609 grafted antibody combinatorial clone 56 (Fab, V domains shown, Fab) VH: QVQLVESGGGVVQPGRSLRLSCAASGFTFSSYDMSWVRQAPGKGLEWVAKVSSGGGSTYYPDTVQGRFTISRDNSKNTLYLQMNSLRAEDTAVYYCARHNYGSFASWGQGTTVTVSS VL: EIVLTQSPATLSLSPGERATLSCQASQSISNFLHWYQQRPGQAPRLLIRYRSQSISGIPARFSGSGSGTDFTLTISSLEPEDFAVYYCQQSGSWPHTFGGGTKVEIK | – | – | – | 500 | 0.000135 | 266000 | – | > 10 | – | – | – | – |
| LM609 grafted antibody combinatorial clone C29 (Fab, V domains shown, Fab) VH: QVQLVESGGGVVQPGRSLRLSCAASGFTFSSYDMSWVRQAPGKGLEWVAKVSSGGGSTYYPDTVQGRFTISRDNSKNTLYLQMNSLRAEDTAVYYCARHNHGSFYSWGQGTTVTVSS VL: EIVLTQSPATLSLSPGERATLSCQASQSISNHLHWYQQRPGQAPRLLIRYRSQSISGIPARFSGSGSGTDFTLTISSLEPEDFAVYYCQQSGSWPLTFGGGTKVEIK | – | – | – | 500 | 0.000343 | 675000 | – | > 10 | ~55 | 2 to 4 | – | – |
| LM609 grafted antibody combinatorial clone C176 (Fab, V domains shown, Fab) VH: QVQLVESGGGVVQPGRSLRLSCAASGFTFSSYDMSWVRQAPGKGLEWVAKVSSGGGSTYYPDTVQGRFTISRDNSKNTLYLQMNSLRAEDTAVYYCARHNYGSFATWGQGTTVTVSS VL: EIVLTQSPATLSLSPGERATLSCQASQSISNFLHWYQQRPGQAPRLLIRYRSQSISGIPARFSGSGSGTDFTLTISSLEPEDFAVYYCQQSGSWPHTFGGGTKVEIK | – | – | – | 900 | 0.000192 | 225000 | – | > 10 | – | – | – | – |
| LM609 grafted antibody combinatorial clone 8F9 (Fab, V domains shown, Fab) VH: QVQLVESGGGVVQPGRSLRLSCAASGFTFSSYDMSWVRQAPGKGLEWVAKVSSGGGSTYYPDTVQGRFTISRDNSKNTLYLQMNSLRAEDTAVYYCARHNHGSFASWGQGTTVTVSS VL: EIVLTQSPATLSLSPGERATLSCQASQSISNHLHWYQQRPGQAPRLLIRYRSQSISGIPARFSGSGSGTDFTLTISSLEPEDFAVYYCQQSGSWPLTFGGGTKVEIK | – | – | – | 600 | 0.00028 | 475000 | – | > 10 | – | – | – | – |
| LM609 grafted antibody combinatorial clone 6D1 (Fab, V domains shown, Fab) VH: QVQLVESGGGVVQPGRSLRLSCAASGFTFSSYDMSWVRQAPGKGLEWVAKVSSGGGSTYYPDTVQGRFTISRDNSKNTLYLQMNSLRAEDTAVYYCARHNYGSFYSWGQGTTVTVSS VL: EIVLTQSPATLSLSPGERATLSCQASQSISNHLHWYQQRPGQAPRLLIRYRSQSISGIPARFSGSGSGTDFTLTISSLEPEDFAVYYCQQSGSWPLTFGGGTKVEIK | – | – | – | 400 | 0.000158 | 410000 | – | > 10 | – | – | – | – |
| LM609 grafted antibody combinatorial clone C37 (Fab, V domains shown, Fab) VH: QVQLVESGGGVVQPGRSLRLSCAASGFTFSSYDMSWVRQAPGKGLEWVAKVSSGGGSTYYLDTVQGRFTISRDNSKNTLYLQMNSLRAEDTAVYYCARHNYGSFYEWGQGTTVTVSS VL: EIVLTQSPATLSLSPGERATLSCQASQSISNHLHWYQQRPGQAPRLLIRYRSQSISGIPARFSGSGSGTDFTLTISSLEPEDFAVYYCQQSGSWPLTFGGGTKVEIK | – | – | – | 300 | 0.000147 | 448000 | – | > 10 | 92 | – | ~90 | – |
| LM609 grafted antibody combinatorial clone 6G1 (Fab, V domains shown, Fab) VH: QVQLVESGGGVVQPGRSLRLSCAASGFTFSSYDMSWVRQAPGKGLEWVAKVSSGGGSTYYPDTVQGRFTISRDNSKNTLYLQMNSLRAEDTAVYYCARHNYGSFASWGQGTTVTVSS VL: EIVLTQSPATLSLSPGERATLSCQASQSISNHLHWYQQRPGQAPRLLIRYRSQSISGIPARFSGSGSGTDFTLTISSLEPEDFAVYYCQQSGSWPLTFGGGTKVEIK | – | – | – | 700 | 0.00028 | 389000 | – | > 10 | – | 2 to 4 | – | – |
| LM609 grafted antibody combinatorial clone 17 (Fab, V domains shown, Fab) VH: QVQLVESGGGVVQPGRSLRLSCAASGFTFSSYDMSWVRQAPGKGLEWVAKVSSGGGSTYYLDTVQGRFTISRDNSKNTLYLQMNSLRAEDTAVYYCARHNYGSFASWGQGTTVTVSS VL: EIVLTQSPATLSLSPGERATLSCQASQSISNFLHWYQQRPGQAPRLLIRYRSQSISGIPARFSGSGSGTDFTLTISSLEPEDFAVYYCQQSGSWPHTFGGGTKVEIK | – | – | – | 500 | 0.000138 | 251000 | > 50 | > 10 | – | – | – | – |
| LM609 grafted antibody combinatorial clone V357D (Fab, V domains shown, Fab; V357D is a clone name, not a substitution) VH: QVQLVESGGGVVQPGRSLRLSCAASGFTFSSYDMSWVRQAPGKGLEWVAKVSSGGGSTYYLDTVQGRFTISRDNSKNTLYLQMNSLRAEDTAVYYCARHNYGSFADWGQGTTVTVSS VL: EIVLTQSPATLSLSPGERATLSCQASQSISNFLHWYQQRPGQAPRLLIRYRSQSISGIPARFSGSGSGTDFTLTISSLEPEDFAVYYCQQSGSWPHTFGGGTKVEIK | – | – | – | 500 | 0.00014 | 279000 | > 50 | > 10 | – | – | – | – |
| LM609 grafted antibody combinatorial clone C119 (Fab, V domains shown, Fab) VH: QVQLVESGGGVVQPGRSLRLSCAASGFTFSSYDMSWVRQAPGKGLEWVAKVSSGGGSTYYPDTVQGRFTISRDNSKNTLYLQMNSLRAEDTAVYYCARHNYGSFASWGQGTTVTVSS VL: EIVLTQSPATLSLSPGERATLSCQASQSISNHLHWYQQRPGQAPRLLIRYRSQSISGIPARFSGSGSGTDFTLTISSLEPEDFAVYYCQQSNSWPHTFGGGTKVEIK | – | – | – | 1500 | 0.000316 | 215000 | – | > 10 | 18 | – | – | – |
| LM609 grafted antibody combinatorial clone 6H6 (Fab, V domains shown, Fab) VH: QVQLVESGGGVVQPGRSLRLSCAASGFTFSSYDMSWVRQAPGKGLEWVAKVSSGGGSTYYLDTVQGRFTISRDNSKNTLYLQMNSLRAEDTAVYYCARHNHGSFASWGQGTTVTVSS VL: EIVLTQSPATLSLSPGERATLSCQASQSISNHLHWYQQRPGQAPRLLIRYRSQSISGIPARFSGSGSGTDFTLTISSLEPEDFAVYYCQQSGSWPLTFGGGTKVEIK | – | – | – | 400 | 0.000187 | 504000 | – | > 10 | – | – | – | – |
| LM609 grafted antibody variant D101 (Fab, V domains shown, Fab) VH: QVQLVESGGGVVQPGRSLRLSCAASGFTFSSYDMSWVRQAPGKGLEWVAKVSSGGGSTYYLDTVQGRFTISRDNSKNTLYLQMNSLRAEDTAVYYCARHNYGSFDYWGQGTTVTVSS VL: EIVLTQSPATLSLSPGERATLSCQASQSISNHLHWYQQRPGQAPRLLIRYRSQSISGIPARFSGSGSGTDFTLTISSLEPEDFAVYYCQQSGSWPHTFGGGTKVEIK | – | – | – | – | – | – | – | – | – | – | – | > 3 |
| LM609 grafted antibody combinatorial clone C59 (Fab, V domains shown, Fab) VH: QVQLVESGGGVVQPGRSLRLSCAASGFTFSSYDMSWVRQAPGKGLEWVAKVSSGGGSTYYPDTVQGRFTISRDNSKNTLYLQMNSLRAEDTAVYYCARHNYGSFADWGQGTTVTVSS VL: EIVLTQSPATLSLSPGERATLSCQASQSISNFLHWYQQRPGQAPRLLIRYRSQSISGIPARFSGSGSGTDFTLTISSLEPEDFAVYYCQQSGSWPHTFGGGTKVEIK | – | – | – | 500 | 0.000137 | 265000 | – | > 10 | – | – | – | – |
| LM609 grafted antibody combinatorial clone 7 (Fab, V domains shown, Fab) VH: QVQLVESGGGVVQPGRSLRLSCAASGFTFSSYDMSWVRQAPGKGLEWVAKVSSGGGSTYYPDTVQGRFTISRDNSKNTLYLQMNSLRAEDTAVYYCARHNHGSFASWGQGTTVTVSS VL: EIVLTQSPATLSLSPGERATLSCQASQSISNFLHWYQQRPGQAPRLLIRYRSQSISGIPARFSGSGSGTDFTLTISSLEPEDFAVYYCQQSGSWPHTFGGGTKVEIK | – | – | – | 1200 | 0.000236 | 204000 | – | > 10 | – | – | – | – |
| LM609 grafted antibody variant E64 (Fab, V domains shown, Fab) VH: QVQLVESGGGVVQPGRSLRLSCAASGFTFSSYDMSWVRQAPGKGLEWVAKVSSGGGSTYYLDTVEGRFTISRDNSKNTLYLQMNSLRAEDTAVYYCARHNYGSFAYWGQGTTVTVSS VL: EIVLTQSPATLSLSPGERATLSCQASQSISNHLHWYQQRPGQAPRLLIRYRSQSISGIPARFSGSGSGTDFTLTISSLEPEDFAVYYCQQSGSWPHTFGGGTKVEIK | – | – | – | – | – | – | – | – | – | – | – | > 3 |
